Experimental data reported in PMC5715344, “Structural enzymology comparisons of multifunctional enzyme, type‐1 (MFE1): the flexibility of its dehydrogenase part” (FEBS Open Bio, 2017).

Key:
Assay in all cases: purified protein
Assay type in all cases: biochemical, Rattus norvegicus
purified protein [1] = substrate: C/C=C/C(=O)SCCNC(=O)CCNC(=O)[C@H](O)C(C)(C)COP(=O)(O)OP(=O)(O)OC[C@H]1O[C@@H](n2cnc3c(N)ncnc32)[C@H](O)[C@@H]1OP(=O)(O)O; conditions: 50 mM Tris pH 9.0, 50 mM KCl, BSA, 25 °C, hydratase site
purified protein [2] = substrate: CC(=O)CC(=O)SCCNC(=O)CCNC(=O)[C@H](O)C(C)(C)COP(=O)(O)OP(=O)(O)OC[C@H]1O[C@@H](n2cnc3c(N)ncnc32)[C@H](O)[C@@H]1OP(=O)(O)O; conditions: 0.1 mM NADH, 50 mM Tris/HCl pH 7.0, 50 mM KCl, BSA, 25 °C, dehydrogenase site
purified protein [3] = substrate: C[C@H](O)CC(=O)SCCNC(=O)CCNC(=O)[C@H](O)C(C)(C)COP(=O)(O)OP(=O)(O)OC[C@H]1O[C@@H](n2cnc3c(N)ncnc32)[C@H](O)[C@@H]1OP(=O)(O)O; conditions: 1 mM NAD+, 50 mM Tris pH 9.0, 50 mM KCl, BSA, 25 °C, dehydrogenase site, substrate generated in situ from 2E-butenoyl-CoA by the enzyme's own hydratase site

B1: rat peroxisomal multifunctional enzyme, type-1 (rpMFE1) (Rattus norvegicus) (protein)
chain: MAEYLRLPHSLAMIRLCNPPVNAVSPTVIREVRNGLQKAGSDHTVKAIVICGANGNFCAGADIHGFSAFTPGLALGSLVDEIQRYQKPVLAAIQGVALGGGLELALGCHYRIANAKARVGLPEVTLGILPGARGTQLLPRVVGVPVALDLITSGKYLSADEALRLGILDAVVKSDPVEEAIKFAQKIIDKPIEPRRIFNKPVPSLPNMDSVFAEAIAKVRKQYPGVLAPETCVRSIQASVKHPYEVGIKEEEKLFMYLRASGQAKALQYAFFAEKSANKWSTPSGASWKTASAQPVSSVGVLGLGTMGRGIAISFARVGISVVAVESDPKQLDAAKKIITFTLEKEASRAHQNGQASAKPKLRFSSSTKELSTVDLVVEAVFEDMNLKKKVFAELSALCKPGAFLCTNTSALNVDDIASSTDRPQLVIGTHFFSPAHVMRLLEVIPSRYSSPTTIATVMSLSKKIGKIGVVVGNCYGFVGNRMLAPYYNQGFFLLEEGSKPEDVDGVLEEFGFKMGPFRVSDLAGLDVGWKIRKGQGLTGPSLPPGTPVRKRGNSRYSPLGDMLCEAGRFGQKTGKGWYQYDKPLGRIHKPDPWLSTFLSQYREVHHIEQRTISKEEILERCLYSLINEAFRILEEGMAARPEHIDVIYLHGYGWPRHKGGPMFYAASVGLPTVLEKLQKYYRQNPDIPQLEPSDYLRRLVAQGSPPLKEWQSLAGPHGSKL
notes: full length, 722 residues, pET15b recombinant; crystal model of molecule A starts at residue -4 (N-terminal vector/tag residues present); monomer
- Km (purified protein [1]): 82.0 ± 18.0 µM
- kcat (purified protein [1]): 113 ± 33 s⁻¹
- kcat/Km (purified protein [1]): 1.4e+06 M⁻¹ s⁻¹
- Km (purified protein [2]): 44.0 ± 15.0 µM
- kcat (purified protein [2]): 23 ± 2.3 s⁻¹
- kcat/Km (purified protein [2]): 500000 M⁻¹ s⁻¹
- Km (purified protein [3]): 3.6 ± 1.0 µM
- kcat (purified protein [3]): 1.7 ± 0.1 s⁻¹
- kcat/Km (purified protein [3]): 500000 M⁻¹ s⁻¹
